Test results from patent US20240270874A1 (JIANGSU HENGRUI PHARMACEUTICALS, published 2024).

T1: human KLB on CHOK1-hKLB cells (human, UniProt Q86Z14 1-1044)
T1 construct: whole, on cells; also called human KLB antigen; β-Klotho
T1 sequence (looked up): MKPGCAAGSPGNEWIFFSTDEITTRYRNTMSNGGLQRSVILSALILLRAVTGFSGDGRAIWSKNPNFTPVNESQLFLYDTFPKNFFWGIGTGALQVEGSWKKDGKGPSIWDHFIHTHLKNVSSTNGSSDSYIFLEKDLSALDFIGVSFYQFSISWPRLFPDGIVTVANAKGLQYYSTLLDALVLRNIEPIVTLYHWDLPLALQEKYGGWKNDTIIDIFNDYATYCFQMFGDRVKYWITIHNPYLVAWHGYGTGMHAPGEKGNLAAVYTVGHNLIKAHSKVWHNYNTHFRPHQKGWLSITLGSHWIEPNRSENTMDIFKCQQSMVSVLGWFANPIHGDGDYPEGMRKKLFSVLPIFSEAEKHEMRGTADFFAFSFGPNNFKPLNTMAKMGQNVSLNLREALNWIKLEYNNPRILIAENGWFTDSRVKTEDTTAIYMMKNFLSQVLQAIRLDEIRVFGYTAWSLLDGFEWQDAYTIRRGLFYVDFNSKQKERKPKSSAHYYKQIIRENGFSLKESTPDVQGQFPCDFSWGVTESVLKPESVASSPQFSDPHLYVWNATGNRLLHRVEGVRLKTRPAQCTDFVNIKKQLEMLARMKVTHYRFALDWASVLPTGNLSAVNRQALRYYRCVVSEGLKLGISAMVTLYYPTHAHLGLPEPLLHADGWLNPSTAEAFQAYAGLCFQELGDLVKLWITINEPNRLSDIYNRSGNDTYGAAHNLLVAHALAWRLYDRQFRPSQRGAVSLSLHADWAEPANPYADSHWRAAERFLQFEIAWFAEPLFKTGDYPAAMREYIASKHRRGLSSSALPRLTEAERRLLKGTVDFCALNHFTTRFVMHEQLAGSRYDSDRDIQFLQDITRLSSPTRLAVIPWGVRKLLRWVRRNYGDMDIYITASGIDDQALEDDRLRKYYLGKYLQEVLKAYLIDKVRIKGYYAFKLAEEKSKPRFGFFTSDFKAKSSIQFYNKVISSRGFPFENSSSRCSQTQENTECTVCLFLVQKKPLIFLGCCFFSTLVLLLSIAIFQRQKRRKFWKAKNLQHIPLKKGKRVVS

T2: hKLB (R&D, Cat. # 5889-KB) (human, UniProt Q86Z14 53-997, limits assumed)
T2 construct: bought soluble protein; also called KLB protein; human KLB
T2 sequence (looked up): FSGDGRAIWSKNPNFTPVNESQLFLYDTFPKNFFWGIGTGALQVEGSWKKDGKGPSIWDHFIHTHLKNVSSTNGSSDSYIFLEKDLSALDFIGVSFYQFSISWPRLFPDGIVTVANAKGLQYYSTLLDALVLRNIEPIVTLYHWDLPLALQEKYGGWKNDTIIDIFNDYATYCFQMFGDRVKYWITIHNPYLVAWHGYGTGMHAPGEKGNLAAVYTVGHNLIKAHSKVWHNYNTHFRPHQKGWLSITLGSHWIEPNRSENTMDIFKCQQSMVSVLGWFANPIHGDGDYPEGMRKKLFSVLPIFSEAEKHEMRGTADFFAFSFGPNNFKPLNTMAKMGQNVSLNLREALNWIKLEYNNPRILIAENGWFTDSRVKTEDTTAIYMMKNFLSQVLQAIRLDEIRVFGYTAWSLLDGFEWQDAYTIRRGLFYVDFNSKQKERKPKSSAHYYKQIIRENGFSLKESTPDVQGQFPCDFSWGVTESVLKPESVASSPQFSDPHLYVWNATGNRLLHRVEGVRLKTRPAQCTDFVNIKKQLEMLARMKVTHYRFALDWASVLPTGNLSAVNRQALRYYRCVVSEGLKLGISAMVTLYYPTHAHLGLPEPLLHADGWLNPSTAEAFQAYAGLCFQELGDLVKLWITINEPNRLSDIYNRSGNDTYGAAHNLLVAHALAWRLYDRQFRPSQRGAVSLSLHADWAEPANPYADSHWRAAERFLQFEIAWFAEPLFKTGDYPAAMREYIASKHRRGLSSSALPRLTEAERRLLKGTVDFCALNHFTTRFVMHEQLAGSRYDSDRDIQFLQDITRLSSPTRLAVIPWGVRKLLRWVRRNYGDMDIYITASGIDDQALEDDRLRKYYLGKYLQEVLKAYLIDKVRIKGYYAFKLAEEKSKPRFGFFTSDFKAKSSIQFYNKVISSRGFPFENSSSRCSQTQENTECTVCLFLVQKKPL

B1: hAb-23 (antibody, human IgG1, kappa, L234A L235A, V domains shown)
VH: QVQLVQSGAEVKKPGSSVKVSCKASGGTFSSYAISWVRQAPGQGLEWMGGIIPIFGTANYAQKFQGRVTITADESTSTAYMELSSLRSEDTAVYYCARELVSYYYGMDVWGQGTMVTVSS
VL: not shown
notes: from a human natural phage library; human IgG1 (L234A, L235A) / kappa; also called fully human antibody hAb-23
B2: hAb99-13 (antibody, human IgG1, kappa, L234A L235A, V domains shown)
VH: EVQLVQSGAEVKKPGASVKVSCKASGYTFTNYGINWVRQAPGQRLEWMGYIYIGNVDIEYNAKFKGRVTITSDTSASTAYMELSSLRSEDTAVYYCARGRGLGHFDVWGQGTTVTVSS
VL: DIQMTQSPSSLSASVGDRVTITCRASKSISKFLAWFQQKPGKTNKLLIYSGSTLQSGVPSRFSGSGSGTDFTLTISSLQPEDFATYYCQQHNEYPWTFGGGTKVEIKR
notes: human IgG1 (L234A, L235A) / kappa
B3: hAb18-8 (antibody, human IgG1, kappa, L234A L235A, V domains shown)
VH: EVQLVQSGAEVKKPGASVKVSCKASGYTFTDYAMHWVRQAPGQRLEWMGVISTYSGTTNYNQNFKGRVTITVDKSASTAYMELSSLRSEDTAVYYCARSGPLDYWGQGTTVTVSS
VL: ENVLTQSPDFQSVTPKEKVTITCRATSSVSSSYLHWYQQKPDQSPKLWIYSTSQLASGVPSRFSGSGSGTDYTLTINSLEAEDAATYYCQQYSGYPLTFGQGTKLEIKR
notes: as for B2

These binders were tested against T1, human KLB on CHOK1-hKLB cells (assay: flow cytometry on CHOK1-hKLB cells).
Experimental: The binding ability of the antibodies for CHOK1 cell strains CHOK1-hKLB and CHOK1-cynoKLB overexpressing human KLB and monkey KLB (see Example 1 for specific preparation procedure), respectively, was detected by flow cytometry. The specific procedure was as follows: the above cells were cultured in 10% FBS-containing IMDM medium and incubated in an incubator at 37° C. and 5% CO₂ for 2 days. The cells were then added to a cell plate at 1×10⁵ cells per well, centrifuged at 300 g for 5 min, and then washed once with 1% BSA. The antibody diluted in gradient was added to the cell plate at 100 μL per well, and the mixture was incubated at 4° C. for 1 h and washed once with 1% BSA. The diluted (1:400) APC-goat anti-human IgG Fc fluorescent secondary antibody was added at 100 μL per well, and the resulting mixture was incubated at 4° C. for 1 h. The plate was washed three times with 1% BSA, PBS was added at 100 μL per well, and the plate was read.

B1 and B2 are within 1.5-fold of each other in EC50: 390 pM for the first, 440 pM for the second.

B3 showed an EC50 of 1930 pM.

The binders below were run against T2, hKLB (R&D, Cat. # 5889-KB) (assay: BLI (Octet HTX) competition; KLB+antibody premix on SA sensor; competitor: immobilised Bio-FGF21).
Experimental: Bio-FGF21/Bio-FGF19 (obtained by subjecting FGF21 and FGF19 to Biotin labeling with a Biotin Labeling Kit-NH2 (available from DOJINDO Molecular technologies Inc., LK03), wherein FGF21 is set forth in SEQ ID NO: 76 and FGF19 is set forth in SEQ ID NO: 77) was immobilized to an SA sensor (incubation for 80 s) at a concentration of 2 μg/mL, and the sensor was then transferred to a sample well containing KLB (R&D, 5889-KB-1 mg) or containing KLB+antibody premix (pre-incubation for at least 15 min) for 180 s of binding. The reaction signals were detected in real time using the ForteBio OCTET HTX instrument to obtain a binding curve.

First: B1
Second: B2
The “binding signal of KLB to Bio-FGF21, % of KLB alone” value of the first is higher: 113% for the first, 108% for the second.

With B3 the “binding signal of KLB to Bio-FGF21, % of KLB alone” value was 108%.
